Laboratory results reported in publication PMC5340530, “YOD1/TRAF6 association balances p62-dependent IL-1 signaling to NF-κB” (eLife, 2017).

B1: HIS-TRAF6 CC-MATH (310-522) (domain or fragment, UniProt Q9Y4K3 310-522, looked up)
chain: DHQIRELTAKMETQSMYVSELKRTIRTLEDKVAEIEAQQCNGIYIWKIGNFGMHLKCQEEEKPVVIHSPGFYTGKPGYKLCMRLHLQLPTAQRCANYISLFVHTMQGEYDSHLPWPFQGTIRLTILDQSEAPVRQNHEEIMDAKPELLAFQRPTIPRNPKGFGYVTFMHLEALRQRTFIKDDTLLVRCEVSTRFDMGSLRREGFQPRSTDAGV
notes: TRAF6, coiled-coil and MATH domains, residues 310-522; also called HIS-TRAF6 310–522; TRAF6 C-terminus
B2: HIS-TRAF6 MATH (346-504) (domain or fragment, UniProt Q9Y4K3 346-504, looked up)
chain: AQQCNGIYIWKIGNFGMHLKCQEEEKPVVIHSPGFYTGKPGYKLCMRLHLQLPTAQRCANYISLFVHTMQGEYDSHLPWPFQGTIRLTILDQSEAPVRQNHEEIMDAKPELLAFQRPTIPRNPKGFGYVTFMHLEALRQRTFIKDDTLLVRCEVSTRFD
notes: also called C-terminal HIS-TRAF6 MATH; TRAF6 MATH domain

Biological target: T1, recombinant GST-YOD1 (UniProt Q5VVQ6 1-348)
T1 construct: YOD1 (OTUD2, DUBA8); A GST-YOD1 truncation product is seen in the blots (asterisk)
Test: pull-down; GST-YOD1 (or GST) on Glutathione Sepharose 4B; candidate protein incubated 2 hr at 4°C in assay buffer with 0,5% Triton X100; Western blot or Coomassie
Conditions: both partners purified

Row | Binder | binding result
1 | B1 | binds
2 | B2 | binds
